The text below walks through data of patent publication US20140011732A1 (Novo Nordisk, published 2014).

The labels stand for the following.
B1: N-epsilon26-[2-(2-{2-[(S)-4-Carboxy-4-((S)-4-carboxy-4-{12-[4-(16-(1H-tetrazol-5-yl)hexadecanoylsulfamoyl)butyrylamino]dodecanoylamino}butyrylamino)butyrylamino … (peptide)
peptide: HAEGTFTSDVSSYLEGQAAKEFIAWLKR
modifications: Aib8; N-epsilon26 (so in the source) carries the acyl side chain printed in the name
notes: GLP-1-(7-34) = residues 1-28 of the entry
B2: N-alpha8-[2-(4-imidazolyl)acetyl] … (peptide)
peptide: {2‑(4-imidazolyl)acetyl}-AEGTFTSDVSSYLEEQAAREFIAWLVRGRK([AEEA-AEEA-γGlu-Trx′-C20 diacid])
modifications: reading uncertain; also: printed as N-alpha8-[2-(4-imidazolyl)acetyl] N-epsilon37-[2-(2-{2-[2-(2-{2-[(S)-4-Carboxy-4-({trans-4-[(19-carboxynonadecanoylamino)methyl]cyclohexanecarbonyl}amino)butyrylamino]ethoxy}ethoxy)acetylamino]ethoxy}ethoxy)acetyl][Glu22,Arg26,Arg34,Lys37]GLP-1-(8-37)
notes: GLP-1-(8-37) = residues 2-31 of the entry
B3: [desaminoHis^7,Arg^26,Arg^34]GLP-1-(7-37)Lys[2-(2-[2-(2-[2-(2-((R)-3-[trans-4-((9-Carboxynonadecanoylamino]methyl)cyclohexylcarbonylamino]3-carboxypropionylamin … (peptide)
peptide: [Desaminohistidyl]AEGTFTSDVSSYLEGQAAREFIAWLVRGRGK-NH2
modifications: not fully specified (residue 32); printed as [desaminoHis^7,Arg^26,Arg^34]GLP-1-(7-37)Lys[2-(2-[2-(2-[2-(2-((R)-3-[trans-4-((9-Carboxynonadecanoylamino]methyl)cyclohexylcarbonylamino]3-carboxypropionylamino)ethoxy)ethoxy]acetylamino)ethoxy]ethoxy)acetyl]amide
B4: [DesaminoHis7,Glu22,Arg26,Arg34]GLP-1-(7-37)Lys[2-(2-[2-(2-[2-(2-((S)-4-[1-[19-Carboxynonadecanoyl]piperidine-4-carbonylamino]-4-carboxybutyrylamino)ethoxy)etho … (peptide)
peptide: [Desaminohistidyl]AEGTFTSDVSSYLEEQAAREFIAWLVRGRGK([AEEA-AEEA-γGlu-Inp-C20 diacid])-NH2
SMILES: CC[C@H](C)[C@H](NC(=O)[C@H](Cc1ccccc1)NC(=O)[C@H](CCC(=O)O)NC(=O)[C@H](CCCNC(=N)N)NC(=O)[C@H](C)NC(=O)[C@H](C)NC(=O)[C@H](CCC(N)=O)NC(=O)[C@H](CCC(=O)O)NC(=O)[C@H](CCC(=O)O)NC(=O)[C@H](CC(C)C)NC(=O)[C@H](Cc1ccc(O)cc1)NC(=O)[C@H](CO)NC(=O)[C@H](CO)NC(=O)[C@@H](NC(=O)[C@H](CC(=O)O)NC(=O)[C@H](CO)NC(=O)[C@@H](NC(=O)[C@H](Cc1ccccc1)NC(=O)[C@@H](NC(=O)CNC(=O)[C@H](CCC(=O)O)NC(=O)[C@H](C)NC(=O)CCc1c[nH]cn1)[C@@H](C)O)[C@@H](C)O)C(C)C)C(=O)N[C@@H](C)C(=O)N[C@@H](Cc1c[nH]c2ccccc12)C(=O)N[C@@H](CC(C)C)C(=O)N[C@H](C(=O)N[C@@H](CCCNC(=N)N)C(=O)NCC(=O)N[C@@H](CCCNC(=N)N)C(=O)NCC(=O)N[C@@H](CCCCNC(=O)COCCOCCNC(=O)COCCOCCNC(=O)CC[C@H](NC(=O)C1CCN(C(=O)CCCCCCCCCCCCCCCCCCC(=O)O)CC1)C(=O)O)C(N)=O)C(C)C
B5: N-epsilon37{2-[2-(2-{2-[2-((S)-3-carboxy-3-{[1-(19-carboxynonadecanoyl)piperidine-4-carbonyl]amino}propionylamino)ethoxy]ethoxy}acetylamino)ethoxy]ethoxy}acetyl … (peptide)
peptide: H[Aib]EGTFTSDVSSYLEEQAAREFIAWLVRGRK-NH2
modifications: not fully specified (residue 31); printed as N-epsilon37{2-[2-(2-{2-[2-((S)-3-carboxy-3-{[1-(19-carboxynonadecanoyl)piperidine-4-carbonyl]amino}propionylamino)ethoxy]ethoxy}acetylamino)ethoxy]ethoxy}acetyl [Aib8,Glu22,Arg26,Arg34,Lys37]GLP-1-(7-37)amide

Starred links: 1 amine or outer side, 2 acyl side, 3 side chain; linkers in the order of their positions; H or OH if unused. Non-standard residues stand in square brackets, D forms with d. Groups on a side chain read outwards from the residue. Primed or numbered codes have the meaning given here. No end group written: not given here. *: point of attachment. C20 diacid = O=C(O)CCCCCCCCCCCCCCCCCCC(=O)*; γGlu = O=C(O)[C@H](CCC(=O)[*:2])N[*:1]; Desaminohistidyl = O=C(CCc1c[nH]cn1)*; Trx′ = not defined here; AEEA = NCCOCCOCC(=O)O; Aib = CC(C)(N)C(=O)O; Inp = O=C(O)C1CCNCC1

For the experiment, the target named is T1, human serum albumin (HSA) (human, UniProt P02768 25-609, biotinylated).
T1 construct: also called biotinylated HSA
Kind of experiment: competition SPA on biotinylated HSA, 125I acylated GLP-1 tracer.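 Also: streptavidin SPA beads carrying biotinylated HSA, competition incubated 20 h at room temperature, plates then read on a TopCount counter.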
Protocol: Streptavidin-SPA beads (GE Healthcare RPNQ0009) were incubated with biotinylated HSA for 5 hours. The beads were washed with buffer to remove unbound HSA. […] After 20 hours of gentle rocking at room temperature the plates were centrifuged and counted on a TopCounter.
As usually defined, the EC50 is the concentration at which the effect is half-maximal. For HAEGTFTSDVSSYLEEQAAREFIAWLVRGRK (Aib8; Lys37 N-epsilon carries the acyl side chain printed in the name), the EC50 fell in the range of 1 to 100 nM.

B1 returned an EC50 of 1 to 100 nM.

Molecule B2 gave an EC50 of 150 to 300 nM.

As for [Desaminohistidyl]AEGTFTSDVSSYLEGQAAREFIAWLVRGRGK([AEEA-AEEA-γGlu-Inp-C20 diacid]) [[DesaminoHis7,Arg26,34]-GLP-1 …], the EC50 is > 2000 nM.

Take B3: the EC50 is > 2000 nM.

Turning to B4, the EC50 was 300 to 800 nM.

Molecule B5 displayed an EC50 of 300 to 800 nM.
